Data from patent US20200230249A1 (UREKA SARL, published 2020).
Numbered stars: 1 amine (or outer) side, 2 acyl side, 3 side chain; on linkers, the order of the positions; unused ones are H or OH. Square brackets hold non-standard residues; d marks the D form. Ends that are not written are not given here. A^u = urea/ureido (oligourea) residue with alanine side chain, C[C@@H](CNC(=O)[*:2])N[*:1]; Au = A^u, ureido (oligourea) alanine residue, C[C@@H](CNC(=O)[*:2])N[*:1]; D^uα = urea/ureido residue with aspartic acid side chain; E^u = urea/ureido residue with glutamic acid side chain; Y^u = urea/ureido residue with tyrosine side chain

B1: GG2[A^UA^UA^U]^17-20 (peptide)
peptide: HGEGTFTSDVSSYLEG[A^u][A^u][A^u]EFIAWLVKGRG-NH2
modifications: N-terminus assumed
SMILES: CC[C@H](C)[C@H](NC(=O)[C@H](Cc1ccccc1)NC(=O)[C@H](CCC(=O)O)NC(=O)NC[C@H](C)NC(=O)NC[C@H](C)NC(=O)NC[C@H](C)NC(=O)CNC(=O)[C@H](CCC(=O)O)NC(=O)[C@H](CC(C)C)NC(=O)[C@H](Cc1ccc(O)cc1)NC(=O)[C@H](CO)NC(=O)[C@H](CO)NC(=O)[C@@H](NC(=O)[C@H](CC(=O)O)NC(=O)[C@H](CO)NC(=O)[C@@H](NC(=O)[C@H](Cc1ccccc1)NC(=O)[C@@H](NC(=O)CNC(=O)[C@H](CCC(=O)O)NC(=O)CNC(=O)[C@@H](N)Cc1c[nH]cn1)[C@@H](C)O)[C@@H](C)O)C(C)C)C(=O)N[C@@H](C)C(=O)N[C@@H](Cc1c[nH]c2ccccc12)C(=O)N[C@@H](CC(C)C)C(=O)N[C@H](C(=O)N[C@@H](CCCCN)C(=O)NCC(=O)N[C@@H](CCCNC(=N)N)C(=O)NCC(N)=O)C(C)C
B2: GG2[F^UαI^UA^U]^22-25 (peptide)
peptide: HGEGTFTSDVSSYLEGQAAKEXXXLVKGRG
modifications: ureido (oligourea) residues F^uα I^u A^u at positions 22-24 of the hybrid, replacing residues 22-25 of GLP-1-G2; C-terminal amide
B3: GG2[A^UA^UA^U]^19-22 (peptide)
peptide: HGEGTFTSDVSSYLEGQA[A^u][A^u][A^u]IAWLVKGRG-NH2
modifications: N-terminus assumed
SMILES: CC[C@H](C)[C@H](NC(=O)NC[C@H](C)NC(=O)NC[C@H](C)NC(=O)NC[C@H](C)NC(=O)[C@H](C)NC(=O)[C@H](CCC(N)=O)NC(=O)CNC(=O)[C@H](CCC(=O)O)NC(=O)[C@H](CC(C)C)NC(=O)[C@H](Cc1ccc(O)cc1)NC(=O)[C@H](CO)NC(=O)[C@H](CO)NC(=O)[C@@H](NC(=O)[C@H](CC(=O)O)NC(=O)[C@H](CO)NC(=O)[C@@H](NC(=O)[C@H](Cc1ccccc1)NC(=O)[C@@H](NC(=O)CNC(=O)[C@H](CCC(=O)O)NC(=O)CNC(=O)[C@@H](N)Cc1c[nH]cn1)[C@@H](C)O)[C@@H](C)O)C(C)C)C(=O)N[C@@H](C)C(=O)N[C@@H](Cc1c[nH]c2ccccc12)C(=O)N[C@@H](CC(C)C)C(=O)N[C@H](C(=O)N[C@@H](CCCCN)C(=O)NCC(=O)N[C@@H](CCCNC(=N)N)C(=O)NCC(N)=O)C(C)C
B4: GG2[A^UA^UA^U]^23-26 (peptide)
peptide: HGEGTFTSDVSSYLEGQAAKEF[A^u][A^u][A^u]VKGRG-NH2
modifications: N-terminus assumed
SMILES: CC(C)C[C@H](NC(=O)[C@H](Cc1ccc(O)cc1)NC(=O)[C@H](CO)NC(=O)[C@H](CO)NC(=O)[C@@H](NC(=O)[C@H](CC(=O)O)NC(=O)[C@H](CO)NC(=O)[C@@H](NC(=O)[C@H](Cc1ccccc1)NC(=O)[C@@H](NC(=O)CNC(=O)[C@H](CCC(=O)O)NC(=O)CNC(=O)[C@@H](N)Cc1c[nH]cn1)[C@@H](C)O)[C@@H](C)O)C(C)C)C(=O)N[C@@H](CCC(=O)O)C(=O)NCC(=O)N[C@@H](CCC(N)=O)C(=O)N[C@@H](C)C(=O)N[C@@H](C)C(=O)N[C@@H](CCCCN)C(=O)N[C@@H](CCC(=O)O)C(=O)N[C@@H](Cc1ccccc1)C(=O)N[C@@H](C)CNC(=O)N[C@@H](C)CNC(=O)N[C@@H](C)CNC(=O)N[C@H](C(=O)N[C@@H](CCCCN)C(=O)NCC(=O)N[C@@H](CCCNC(=N)N)C(=O)NCC(N)=O)C(C)C
B5: GG2[A^UA^UA^U]^24-27 (peptide)
peptide: HGEGTFTSDVSSYLEGQAAKEFIXXXKGRG
modifications: ureido (oligourea) residues A^u A^u A^u at positions 24-26 of the hybrid, replacing residues 24-27 of GLP-1-G2; C-terminal amide

What follows are binders tested against T1, mouse GLP-1 receptor endogenously expressed in βTC6 cells (mouse, UniProt O35659 22-463) (assay: cell-based or functional assay).
T1 sequence (looked up): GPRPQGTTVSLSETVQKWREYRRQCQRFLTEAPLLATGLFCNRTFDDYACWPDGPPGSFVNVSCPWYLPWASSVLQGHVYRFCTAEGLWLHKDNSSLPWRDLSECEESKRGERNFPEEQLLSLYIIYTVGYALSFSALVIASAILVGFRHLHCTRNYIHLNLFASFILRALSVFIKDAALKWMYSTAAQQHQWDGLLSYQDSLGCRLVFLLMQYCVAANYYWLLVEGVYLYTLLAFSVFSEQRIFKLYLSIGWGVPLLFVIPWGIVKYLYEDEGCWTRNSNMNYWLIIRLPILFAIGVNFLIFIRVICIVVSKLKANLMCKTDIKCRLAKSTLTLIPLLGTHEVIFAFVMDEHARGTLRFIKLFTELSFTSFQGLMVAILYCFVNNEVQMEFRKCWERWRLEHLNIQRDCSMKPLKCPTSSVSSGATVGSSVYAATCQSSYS

| Binder | EC50 (nM), cAMP production functional assay [nM] | Potency (%) compared to GLP-1-G^2, cAMP production [%] |
| --- | --- | --- |
| HGEGTFTSDVSSYLEGQ[A^u][A^u][A^u]FIAWLVKGRG-NH2 [GG2[A^UA^UA^U]^18-21] | 4.1 | 6 |
| HGEGTFTS[D^uα][A^u][A^u]YLEGQAAKEFIAWLVKGRG-NH2 [GG2[D^UαA^UA^U]^9-12] | 13 | 2 |
| H-HGEGTFTSD[Au][Au][Au]LEGQAAKEFIAWLVKGRG-NH2 (also: oligourea (urea) backbone at A^u units) [GG2[A^UA^UA^U]^10-13] | 650 | 0.04 |
| H-HGEGTFTSDVSSYLE[Au][Au][Au]KEFIAWLVKGRG-NH2 (also: oligourea (urea) backbone at A^u units) [GG2[A^UA^UA^U]^16-19] | 240 | 0.1 |
| HGEGTFTSDVSS[Au][Au][Au]QAAKEFIAWLVKGRG-NH2 (also: oligourea (urea) backbone at A^u units) [GG2[A^UA^UA^U]^13-16] | > 10000 | < 0.01 |
| B1 | 1600 | 0.01 |
| B2 | 62 | 0.4 |
| H-HGEGTFTSDVS[Au][Au][Au]GQAAKEFIAWLVKGRG-NH2 (also: oligourea (urea) backbone at A^u units) [GG2[A^UA^UA^U]^12-15] | > 10000 | < 0.01 |
| B3 | > 10000 | < 0.01 |
| HGEGTFTSDVSSY[Y^u][E^u][A^u]AAKEFIAWLVKGRG-NH2 [GG2[Y^UE^UA^U]^14-17] | 0.18 | 135 |
| HGEGTFTSDVSSY[Y^u][E^u][A^u][A^u][A^u][A^u]FIAWLVKGRG-NH2 [GG2[Y^uE^uA^uA^uA^uA^u]^14-21] | 3.4 | 7 |
| HGEGTFTSDVSSYL[E^u][A^u][A^u]AKEFIAWLVKGRG-NH2 [GG2[E^UA^UA^U]^15-18] | 1.9 | 13 |
| H-HGEGTFTSDVSSYLEGQAAKEFIAWLVKGRG-NH2 [GLP-1-G^2 (GG2)] | 0.24 | 100 |
| HGEGTFTSDV[A^u][Y^u][A^u]EGQAAKEFIAWLVKGRG-NH2 [GG2[A^UY^UA^U]^11-14] | 1.6 | 15 |
| H-HGEGTFTSDVSSYL[Au][Au][Au]AKEFIAWLVKGRG-NH2 (also: oligourea (urea) backbone at A^u units) [GG2[A^UA^UA^U]^15-18] | 123 | 0.2 |
| B4 | 3930 | 0.01 |
| HGEGTFTSDV[Au][Au][Au]EGQAAKEFIAWLVKGRG-NH2 (also: oligourea (urea) backbone at A^u units) [GG2[A^UA^UA^U]^11-14] | 97 | 0.2 |
| B5 | > 10000 | < 0.01 |
| H-HGEGTFTSDVSSY[Au][Au][Au]AAKEFIAWLVKGRG-NH2 (also: oligourea (urea) backbone at A^u units) [GG2[A^UA^UA^U]^14-17] | 353 | 0.07 |
